In PMC3229553:

Biological target: Orb (Drosophila (endogenous in ovaries))
Assay: co-IP; wild type ovary extract precipitated with Orb antibody coupled to protein A/G beads, room temperature 2 hours; Co-IP buffer 20 mM Hepes pH 7.5, 150 mM NaCl, 2.5 mM MgCl2, 250 mM sucrose, 0.05% NP40, 0.5% Triton-X, with RNase A; Western blot for Cup; HA antibody as negative control

B1: Cup (natural protein)
chain: MQMAEAEQENGAGALKIATNAGATDRPAHQQLPLPVEDQQDEVLTPAEKGKFEYPPPPPPPTPVQAPLATKATALNASQEHDDDEANSEKWEDPCAPPPPPPLPTSAFLATGLGYLKLPAFKLKDALEKAITKLEANKRTLKASPESSRSIKNKNVVALEMLPRRSNPETIGDGSMLASTSTAVMLQTKKPAVIVEMERRCKIINLLAKQNQILESISGEAIPMHGPSKHLHEDEGLTLQVLSARASTPYTQPSSMLSCTAVSCDLEHDSPRKQVASKEAVPEQQSSQVQQKRPPSTGIHKPGSLRAPKAVRPTTAPVVSSKPVKSYTRSRLMDIRNGMFNALMHRSKESFVMPRIATCDDIELEGRLRRMNIWRTSDGTRFRTRSTTANLNMNNNNNNECMPAFFKNKNKPNLISDESIIQSQPPQPQTEFQDPAIVNQRRIGSGRLNHSKWGYNDEDYHSYHNGKSQHMEEVNSKNSKNMTVLQFFDNGEISSQPQRRPNTPVMGMSINRSENDTLHSNESSEDLSRANENYVKRVMSGFLVVSKPKSRDVEDRHHRRYRNQNEEPEWFSCGPTSRLDTIELCGFDEDEEKMLKEGNKNHGLGETERETSKQKMDHKYKWTHAEPMGRSKYMPKHDTNNNHNVENMNNVMATEHQQQKEEKRPGSGRSFQFDKFNQSQQNYESSSYVNHQQPPQTQPQQMQQQSNTNTNNSKFMSFFANEGNSSSSSLNEFFKQAINQGHGNNPEQPKSLGHIGQMPSVDQLEAKWRRNSLNNVGETANKQTDNFQKLIGSLSSAKPQSQAVGYDAISNFIMQQQQYQQQQQKQHLIIQQQQQHTAFLASLQLKAILGRADTQLLLLRLTKGEISKHGLLVQLANPRLTDMDREAITAVLQFTNTQQQQQQHKQQLDMLSSTVIASQLQNLHNLAIVQQTLAARQQPQHNPQTQAPHQLSQEDLQAHANVIMRNAVMKRKIEEQTSKLINGGAKHQAQQQYLNRGQQRQARPDANSNALLHALISGGGNNHASGYPMNGQPQKHHSNLRFGDNQNFQSFESNQPHFATQYKQQYQQSQQQHPHQQPQQLNSLHQNNAGAVNSFNKAQMQAQSAISMLPNSGDEFH
Question: B1 was tested. Which percent of Cup pulled down did it give?
Answer: Its percent of Cup pulled down is 10%.
